For this test, the target named is trimeric HA protein of A/Victoria/361/2011 (H3N2) (Influenza A virus A/Victoria/361/2011 …, UniProt A0A097PF39, strain). In words: negative-stain electron microscopy.

Results on one molecule are retold here after publication PMC12041195 (Nature Communications, 2025).

B1: IgM-F045-092 (antibody, V domains shown)
VH: EVQLVESGAEVKKPGSSVKVSCRASGTFYKYAINWVRQAPGQGLEWMGGIIPFFGTTNYAQKFQGRLTITADGSTNTAYMQLDSLRSEDTAVYYCAGPSITESHYCLDCAAKDYYYGLDVWGQGTTVTVSS
VL: not shown
As for B1, the binding result is on record as “binds”.
